In IntAct's records for PubMed 36577757:

What was measured:
[1] = target: mrtfa_human MRTFA (UniProt Q969V6)
[2] = target: mrtfa_human MRTFA (UniProt Q969V6); remark: listed apart in the source

UniProt Q969V6, sequence (Q969V6 whole entry): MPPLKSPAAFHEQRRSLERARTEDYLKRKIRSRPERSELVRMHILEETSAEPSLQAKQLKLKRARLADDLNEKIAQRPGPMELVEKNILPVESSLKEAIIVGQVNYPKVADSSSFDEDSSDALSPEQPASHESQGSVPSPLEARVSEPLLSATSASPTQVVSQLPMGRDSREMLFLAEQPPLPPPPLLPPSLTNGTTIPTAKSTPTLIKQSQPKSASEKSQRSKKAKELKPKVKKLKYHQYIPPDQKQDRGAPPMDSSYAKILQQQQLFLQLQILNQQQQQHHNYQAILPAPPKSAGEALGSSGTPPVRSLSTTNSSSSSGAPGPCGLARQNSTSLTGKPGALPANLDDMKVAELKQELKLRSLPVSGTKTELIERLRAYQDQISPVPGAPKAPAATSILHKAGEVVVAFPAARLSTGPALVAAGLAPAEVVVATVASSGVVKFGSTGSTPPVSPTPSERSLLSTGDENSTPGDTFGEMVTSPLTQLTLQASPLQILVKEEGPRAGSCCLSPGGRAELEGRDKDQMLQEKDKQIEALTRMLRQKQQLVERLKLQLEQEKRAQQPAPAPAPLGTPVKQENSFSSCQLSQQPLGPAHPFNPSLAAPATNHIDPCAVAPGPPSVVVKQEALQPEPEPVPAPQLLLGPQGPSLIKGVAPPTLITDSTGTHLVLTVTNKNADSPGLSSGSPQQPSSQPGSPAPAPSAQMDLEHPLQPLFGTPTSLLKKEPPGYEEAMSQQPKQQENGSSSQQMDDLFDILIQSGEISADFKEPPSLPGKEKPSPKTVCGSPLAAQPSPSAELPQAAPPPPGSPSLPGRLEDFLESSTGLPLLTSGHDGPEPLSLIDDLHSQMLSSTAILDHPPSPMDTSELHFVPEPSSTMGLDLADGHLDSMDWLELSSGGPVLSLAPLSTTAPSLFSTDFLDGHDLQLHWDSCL

## Filamin-A (Homo sapiens), P21333 S2152A
[1]
  effect of a mutation on the interaction: disrupting interaction strength
[2]
  effect of a mutation on the interaction: decreasing interaction strength
